Biological target: human serum albumin (human, UniProt P02768 25-609)
Test: BLI

B1: rhIL-22BP-ABD (recombinant human IL-22 binding protein fused to the albumin-binding domain ABD) (other)
chain: TQSTHESLKPQRVQFQSRNFHNILQWQPGRALTGNSSVYFVQYKIYGQRQWKNKEDCWGTQELSCDLTSETSDIQEPYYGRVRAASAGSYSEWSMTPRFTPWWETKIDPPVMNITQVNGSLLVILHAPNLPYRYQKEKNVSIEDYYELLYRVFIINNSLEKEQKVYEGAHRAVEIEALTPHSSYCVVAEIYQPMLDRRSQRSEERCVEIPLAEAKVLANRELDKYGVSDYYKNLINNAKTVEGVKALIDEILAALP
- Kd: 1150 nM

Source: article PMC12361007 (AMB Express, 2025)
